In a protein production outcome set (Wang et al. 2014):

test: label from the status in PepcDB records

Row | Sequence | protein production
1 | MEMKKSGRSLKMIFTQYFATVSLAFIALLCLIWAIFVISLNTKLIIPANQTEQELHRLEDKIEKADTFQAKRLPKDTAYLLMTKDGKIKESNMSKNLQQQALASYSGNAVSPNDYGYFMVFKRQKEVCIVNYRLEAHYSVAWMNKYLPNVSLLGLILTGLGVLLVFTLVTILFARRLQRQLSPIIAATQKIAKQNLDFTVQSSDIKEFNQVLNSLDTMRAALRDSLMHSWQVEQEKQNQIAALTHDIKTPLTVIKGNTELLKQTELSETQEAFVGYSLKNIGQVETYLQQLSYLAKNSQLQDFHPEKIKVAAFLEELSQNSQALAATKDIKIQFVNNLSDAQLTTYWDKGLLARALMNIISNAVEHSPQGSQLQLVCHLENELFQLTCLDSGQGFSREALDKAKMQFFQDDTSRHDRKHSGLGLTIADNIIRLHGGSLSLSNDAKTASGRVDVVLPLAKM | failed
2 | MEMMLGKTYREMVFWMAWIIIPFLMEIVPALGGFIILLRKRLSIKDKAFSGKLPQITIIVPVYNSEDTLKGCIESIYNSDYPSEFIDVMLVDNQSSDNSFKIFTRCQKEFDGLSLRYMNSKQGKSKALNMALFNSSGKYIIHIDSDGKLHKDAIKNMVTRFEGNPHVHCMTGVILTDKELIEKTKGSFFKLLRKCEFFEYAQAFLAGRNFESEVGSIYTLSGAFSAFRKSTILKTQLYNSETVSEDTQITFQVKKLLNQKVYLCENALFFVDPIEGFNKLYTQRQRWQRGELEVSHMFLRDGLKFGKGFVSDFMVRTLMYDHTFAFPRMIWYFALIFLVFMNYPIYLVVGSVAVIYLLYSLSAFLFYLNVISYLKKYKEVRSYYAKKFYLIFLMPMYNFGVFWIRFCGIINSIQLQGNWKTLNLTDEWRNFLGVFKRDFSVVFKVLNKLRQVVNNE | failed
3 | MEMNVKTNSSPTAPKPSKQTGWRIWWSLLRPHTLTAAFVPVFIGTAYSMQVGGINQIHLPLFLMMLLACLLIQAATNMFNEYFDYKRGLDHEGSVGIGGAIVRDGIQPKTVLNLAFGFFGIAILLGVYICINSSWWLAAIGLVCMAVAYLYTGGPLPIAYTPFGELTAGLFMGVIIIGISFFIQTGTVTSEVILLSIPSSILIGAILLANNIRDLDGDKENGRKTLAILVGRERAVGVLASMFIVSYIWTIALIIVGIVSPWMLIVFLSAPKAFKATKGFIGKSIPMEMVPAMIATAKTNTIFGFLMGIGLLLGYFL | failed
4 | MEMTKVTGKFDVKLTPENAYATGVGGVNLGRMALDKTFYGELEARSQGEMLSAMTAVKGSAGYVAIEQVVGKLCGRQGSFVLQHFGIMTDGQNRLHLEVVPHSGAGELTGLYGTMAISIENGQHFYEFSFCFEPASEVEG | not failed
5 | MENAPLLFQLPDDDTLYQALLARDPAYEGFAFVGVKSTGVFCRLTCAARKPKRENTVFFGSIKGCVEAGFRACLRCRPLERAGVQEPWVQTLLEQLGRDPERRWYEDDLVAQGLDPSTVRRAFKRYFGVTFLEMARLRRMGQGMQQLASGEPVIEAQISAGFDSDSGFRHAFSRLAGQPPSNLRGRELLKVDWLQTPIGVMLAVADAQVLHLLEFFDRPALANELQNLQKSSGSSIGFGRFAPIDQIEAELQRYFAGEAVHFATPLAMSASPFTRTVWQALRAIPLGTTCSYAEVARQVGSPSAVRAVARANAANQISIVIACHRVIGADGSLTGYGGGLWRKRWLLEHERRLHHLQGASASGL | failed
6 | MENDKHNNPKTIFIPDDIAEGIFHHLPIKSLARFKVLSKKWTSMIESTYFSHKRLIRTGLPTPNMKFLHISQHFTANFVEEYSNSITFLLETFSRDDQNNRKTFDESQNKTIQVLGSCDGLVLLRIHDDFRSIYLINPTTKEHMKLSPEFMQWPFTLSYLTPAMANKPWRQLSQSVLDYDISVKRMPSLAGFGKDIVKKSYKVVLIYTRYEIHDHEFKAKVLSLDNGEQRDVGFYDIHHCIFCDEQTSVYANGSLFWLTLKKLSQTSYQLLAIDLHTEEFRWILLPECDTKYATNIEMWNLNERLCLSDVLESSNLVVWSLHQEYPTEKWEKIYSIKIDVIRTNQLHEKFWMLGLAAAYFSNIRNRQDQVSFFRQRTISYLPTMISPSNLML | failed
7 | MENEKLPYISVIIIAYNRKEFLLDAIKSALNQTLDREYYEIIVIKNFQDDTIDNFIKENNIKGIISENKSLGGKISEALYVSKGEIVSFLEDDDLFFPNKLREVYDIFISNPNLVYYHNNFIKTNNRLFEIDYSENKKNKKIFLKLIELNNIKTINYLISKKLIAFNMSAITIRKSYFNDCLDILENIRIAHDMCFFFCLSGKSDTSKEILIYDKPLSIWFIHNSWSNTSCDLEIKNFKNKNFTIAKETLNAIVYIFNEFCIKNNLYNFYDNKQPLCDYLKLTISARKSQLYLLNEYEININDIKLFFKFVTMRKSIYLSGAFILVLFGKFISKKLSTKIFLYISFLLNTI | failed
8 | MENETGGKDREVVEAVTNSEPGNGDGFAKKGDSYDDKLPSENVDKHMENEANEKEKEEDGAADELCALQDALETTLFQHLSNYAQKQMLQKLRSLRAKERKELSGEWKSLLAQEALLKSKKYSFSAELANATFHTWEEETRRMVL | not failed
9 | MENIPFLRASTVPVIEYLDELKEIDASHIYTNYGPINQRFEQTIMSGFFQNRGAVTTVANATLGLMAAIQLKKRKKGKYALMPSFTFPATPLAAIWCGLEPYFIDISIDDWYMDKTVLWDKIEELKEEVAIVVPYATFGSWMNLEEYEELEKKGVPVVVDAAPGFGLMNGGMHYGQDFSGMIIYSFHATKPFGIGEGGLIYSKNEEDIQRIKRMGNFGFDTNRECTMMGFNCKMSEYAAAIGIATMKKWDDKLKERTRISEWYKQLLQSNGLMKKGWQLQKTEAVIQQFMPILCPEEVRNKQVIEDLKKQKIEARLYFSPSCHQQVLFRNYKSTDLTRTNKIAKRIVSLPLWEGMTKEIVEQIVICLGQKVVSADE | not failed
10 | MENIQDSVSEYTKDSAQKIDTDALYHEQMLKALYAGFGIRFCAFIIDLLIIFGVHSLILKPIYHFTNLDSAKLWIDYFSVGHLLDALVFYLYFVLMTKYFKQTLGKMICNIRVERMDRQQLTWTDVLFREWIGRIISGVFANLPYLVTIFTKKHRGIHDYFADTVVIKNKFEKFFYLK | failed
11 | MENKEISYEIIDFSGETNVQFRTSVDPGSYIPTHWHRAIEIIYMQEGSLDVIVESESFTIYKGDCILVNGNVLHSTKCTAPNTAILLQIPLNFMEKYIPNLGQLIFLWDYRTEDPVKKTKLMMLKTTLEQLQVINDIQPDGYLLRFNSLIFELMFQLYHNFSVQVFPQDINHKKKEMDRLDP | not failed
12 | MENKYLVSIIVPVHNTADYLHKCIESLRSQTLQQIEIILVDNLSVDGSSEICDEYAKIDKRIKVLHLSIAGLSIARNAGMRIASAPYIGFVDSDDYVEPAMFEKMLDAMVQSDAEIAYCNFLLEYEFKPNESPYRNSGDIVIRDPKNVLQDMMMEKVSCSACTKLYKSGFLTSLQFPEGKNYEDRLVMYEWVALCKKVVWVDSPFYHYVERQTSICHTMSPMNLYHYFLAEYARMRFMEKYSLFEEEDLFKIRTRLIGTCLTIFKEILLKVNLREFKEPVKDMRQKMKEIAALPEDTYELKYRRRVRKIAYHWHLYYLTHFLFKKGGDSLEHHHHHH | failed
13 | MENMENDENIVVGPKPFYPIEEGSAGTQLRKYMERYAKLGAIAFTNAVTGVDYSYAEYLEKSCCLGKALQNYGLVVDGRIALCSENCEEFFIPVIAGLFIGVGVAPTNEIYTLRELVHSLGISKPTIVFSSKKGLDKVITVQKTVTTIKTIVILDSKVDYRGYQCLDTFIKRNTPPGFQASSFKTVEVDRKEQVALIMNSSGSTGLPKGVQLTHENTVTRFSHARDPIYGNQVSPGTAVLTVVPFHHGFGMFTTLGYLICGFRVVMLTKFDEETFLKTLQDYKCTSVILVPTLFAILNKSELLNKYDLSNLVEIASGGAPLSKEVGEAVARRFNLPGVRQGYGLTETTSAIIITPEGDDKPGASGKVVPLFKAKVIDLDTKKSLGPNRRGEVCVKGPMLMKGYVNNPEATKELIDEEGWLHTGDIGYYDEEKHFFIVDRLKSLIKYKGYQVPPAELESVLLQHPSIFDAGVAGVPDPVAGELPGAVVVLESGKNMTEKEVMDYVASQVSNAKRLRGGVRFVDEVPKGLTGKIDGRAIREILKKPVAKM | not failed
